The source of these data is publication PMC1142346.

Some targets named below: BLM642-1290 C1055N (Homo sapiens, UniProt P54132 642-1290, C1055N); BLM642-1290 WT (Homo sapiens, UniProt P54132 642-1290); BLM642-1290 C1063N (Homo sapiens, UniProt P54132 642-1290, C1063N).
What all share (test): fluorescence anisotropy
In general terms: In fluorescence polarisation assays a small probe gives low polarisation when free and higher when bound to something large.

For data set [1], the target named is BLM642-1290 C1055N/C1063N (Homo sapiens, UniProt P54132 642-1290, C1055N;C1063N).
Data set [2] concerns the target BLM642-1290 zinc-demetalated (WTzn-) (Homo sapiens, UniProt P54132 642-1290).

As a reminder, the Kd is the constant that tells how readily two partners part at equilibrium. A higher Kd goes with lower affinity.

Chain of BLM642-1290 C1063N (P54132 642-1290 C1063N): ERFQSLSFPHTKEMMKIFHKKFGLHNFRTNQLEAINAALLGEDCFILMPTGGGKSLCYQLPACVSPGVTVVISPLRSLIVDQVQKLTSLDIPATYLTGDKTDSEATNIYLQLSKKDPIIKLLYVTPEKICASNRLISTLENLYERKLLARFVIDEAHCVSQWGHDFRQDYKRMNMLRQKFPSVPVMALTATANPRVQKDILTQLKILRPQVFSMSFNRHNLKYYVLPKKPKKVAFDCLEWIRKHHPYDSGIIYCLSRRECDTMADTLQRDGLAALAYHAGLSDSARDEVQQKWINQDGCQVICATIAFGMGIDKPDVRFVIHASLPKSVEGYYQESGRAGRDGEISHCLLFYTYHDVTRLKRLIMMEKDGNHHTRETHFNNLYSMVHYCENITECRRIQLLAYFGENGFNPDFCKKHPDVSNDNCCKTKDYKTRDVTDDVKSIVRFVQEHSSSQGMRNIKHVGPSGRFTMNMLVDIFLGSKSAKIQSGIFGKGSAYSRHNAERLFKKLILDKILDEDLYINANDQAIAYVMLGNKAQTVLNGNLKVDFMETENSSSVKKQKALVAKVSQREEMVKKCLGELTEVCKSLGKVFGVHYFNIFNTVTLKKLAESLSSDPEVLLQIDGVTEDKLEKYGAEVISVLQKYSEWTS
Chain of BLM642-1290 WT (P54132 642-1290): as the sequence (P54132 642-1290 C1063N) above, with N422C counted along it
Chain of BLM642-1290 zinc-demetalated (WTzn-) (P54132 642-1290): as the sequence (P54132 642-1290 C1063N) above, with N422C counted along it
Chain of BLM642-1290 C1055N (P54132 642-1290 C1055N): as the sequence (P54132 642-1290 C1063N) above, with C414N, N422C counted along it
Chain of BLM642-1290 C1055N/C1063N (P54132 642-1290 C1055N/C1063N): as the sequence (P54132 642-1290 C1063N) above, with C414N counted along it

B1: A/B partial duplex (23mer duplex with ss tails), fluorescent (dsDNA)
DNA 1: GCACTGGCCGTCGTTTTACGGTCGTGACTGGGAAAACCCTGGCG
DNA 2: TTTTTTTTTTTTTTTTTTTTTTAGCCGTAAAACGACGGCCAGTGC
As to B1, the Kd was determined as 56 ± 1.8 nM with BLM642-1290 C1055N and 209 ± 3.5 nM in data set [1].
Consider GGGTTAGGGTTAGGGTTAGGG (structured_DNA) [F21 G4 DNA], for which the Kd came out at 4.57 nM in the data set with BLM642-1290 WT, 1990 nM in the data set with BLM642-1290 C1063N and 4.85 nM in data set [2].
